Bridge positions count the residues as written; N and C are the ends. Square brackets hold non-standard residues; d marks the D form. Ends that are not written are not given here.
B1: Ac-Ser-Arg-Leu-Glu-Glu-Glu-Leu-Arg-(cyclo9)Lys-Arg-Leu-Thr-(cyclo13)Glu-NH2 (peptide)
peptide: Ac-SRLEEELRKRLTE-NH2
modifications: lactam 9-13
SMILES: CC(=O)N[C@@H](CO)C(=O)N[C@@H](CCCNC(=N)N)C(=O)N[C@@H](CC(C)C)C(=O)N[C@@H](CCC(=O)O)C(=O)N[C@@H](CCC(=O)O)C(=O)N[C@@H](CCC(=O)O)C(=O)N[C@@H](CC(C)C)C(=O)N[C@@H](CCCNC(=N)N)C(=O)N[C@H]1CCCCNC(=O)CC[C@@H](C(N)=O)NC(=O)[C@H]([C@@H](C)O)NC(=O)[C@H](CC(C)C)NC(=O)[C@H](CCCNC(=N)N)NC1=O
notes: Cyclic ALFA tag; also called SD15193
B2: Ac-Ser-Arg-Leu-Glu-(cyclo5)Asp-Glu-Leu-Arg-(cyclo9)Lys-Arg-Leu-Thr-Glu-NH2 (peptide)
peptide: Ac-SRLEDELRKRLTE-NH2
modifications: lactam 5-9
SMILES: CC(=O)N[C@@H](CO)C(=O)N[C@@H](CCCNC(=N)N)C(=O)N[C@@H](CC(C)C)C(=O)N[C@@H](CCC(=O)O)C(=O)N[C@H]1CC(=O)NCCCC[C@@H](C(=O)N[C@@H](CCCNC(=N)N)C(=O)N[C@@H](CC(C)C)C(=O)N[C@H](C(=O)N[C@@H](CCC(=O)O)C(N)=O)[C@@H](C)O)NC(=O)[C@H](CCCNC(=N)N)NC(=O)[C@H](CC(C)C)NC(=O)[C@H](CCC(=O)O)NC1=O
notes: Cyclic ALFA tag; also called SD15196
B3: Ac-Ser-Arg-Leu-Glu-Glu-Glu-Leu-Arg-Arg-Arg-Leu-Thr-Glu-NH2 (peptide)
peptide: Ac-SRLEEELRRRLTE-NH2
notes: Linear ALFA tag; also called SD15197
B4: Ac-Ser-Arg-Leu-Glu-(cyclo5)Glu-Glu-Leu-(cyclo8)Lys-Arg-Arg-Leu-Thr-Glu-NH2 (peptide)
peptide: Ac-SRLEEELKRRLTE-NH2
modifications: lactam 5-8
SMILES: CC(=O)N[C@@H](CO)C(=O)N[C@@H](CCCNC(=N)N)C(=O)N[C@@H](CC(C)C)C(=O)N[C@@H](CCC(=O)O)C(=O)N[C@H]1CCC(=O)NCCCC[C@@H](C(=O)N[C@@H](CCCNC(=N)N)C(=O)N[C@@H](CCCNC(=N)N)C(=O)N[C@@H](CC(C)C)C(=O)N[C@H](C(=O)N[C@@H](CCC(=O)O)C(N)=O)[C@@H](C)O)NC(=O)[C@H](CC(C)C)NC(=O)[C@H](CCC(=O)O)NC1=O
notes: Cyclic ALFA tag; also called SD15192
B5: Ac-Pro-Ser-Arg-Leu-Glu-(cyclo6)Glu-Glu-Leu-Arg-(cyclo10)dLys-Arg-Leu-Thr-Glu-NH2 (peptide)
peptide: Ac-PSRLEEELR[dK]RLTE-NH2
modifications: lactam 6-10
SMILES: CC(=O)N1CCC[C@H]1C(=O)N[C@@H](CO)C(=O)N[C@@H](CCCNC(=N)N)C(=O)N[C@@H](CC(C)C)C(=O)N[C@@H](CCC(=O)O)C(=O)N[C@H]1CCC(=O)NCCCC[C@H](C(=O)N[C@@H](CCCNC(=N)N)C(=O)N[C@@H](CC(C)C)C(=O)N[C@H](C(=O)N[C@@H](CCC(=O)O)C(N)=O)[C@@H](C)O)NC(=O)[C@H](CCCNC(=N)N)NC(=O)[C@H](CC(C)C)NC(=O)[C@H](CCC(=O)O)NC1=O
notes: Cyclic ALFA tag; also called SD15808
B6: Ac-Pro-Ser-Arg-Leu-Glu-(cyclo6)Lys-Glu-Leu-Arg-(cyclo10)Glu-Arg-Leu-Thr-Glu-NH2 (peptide)
peptide: Ac-PSRLEKELRERLTE-NH2
modifications: lactam 6-10
SMILES: CC(=O)N1CCC[C@H]1C(=O)N[C@@H](CO)C(=O)N[C@@H](CCCNC(=N)N)C(=O)N[C@@H](CC(C)C)C(=O)N[C@@H](CCC(=O)O)C(=O)N[C@H]1CCCCNC(=O)CC[C@@H](C(=O)N[C@@H](CCCNC(=N)N)C(=O)N[C@@H](CC(C)C)C(=O)N[C@H](C(=O)N[C@@H](CCC(=O)O)C(N)=O)[C@@H](C)O)NC(=O)[C@H](CCCNC(=N)N)NC(=O)[C@H](CC(C)C)NC(=O)[C@H](CCC(=O)O)NC1=O
notes: Cyclic ALFA tag; also called SD15805
B7: Ac-Ser-Arg-Leu-Glu-(cyclo5)Glu-Glu-Leu-Arg-(cyclo9)Lys-Arg-Leu-Thr-Glu-NH2 (peptide)
peptide: SRLEEELRKRLTE
modifications: lactam 5-9; not fully specified (N-terminus, C-terminus)
notes: also called SD15194
B8: Ac-Pro-Ser-Arg-Leu-(cyclo5)Glu-Glu-Glu-Leu-(cyclo9)Lys-Arg-Arg-Leu-Thr-Glu-NH2 (peptide)
peptide: Ac-PSRLEEELKRRLTE-NH2
modifications: lactam 5-9
SMILES: CC(=O)N1CCC[C@H]1C(=O)N[C@@H](CO)C(=O)N[C@@H](CCCNC(=N)N)C(=O)N[C@@H](CC(C)C)C(=O)N[C@H]1CCC(=O)NCCCC[C@@H](C(=O)N[C@@H](CCCNC(=N)N)C(=O)N[C@@H](CCCNC(=N)N)C(=O)N[C@@H](CC(C)C)C(=O)N[C@H](C(=O)N[C@@H](CCC(=O)O)C(N)=O)[C@@H](C)O)NC(=O)[C@H](CC(C)C)NC(=O)[C@H](CCC(=O)O)NC(=O)[C@H](CCC(=O)O)NC1=O
notes: Cyclic ALFA tag; also called SD15806
B9: Ac-Pro-Ser-Arg-Leu-Glu-(cyclo6)Glu-Glu-Leu-Arg-(cyclo10)Lys-Arg-Leu-Thr-Glu-NH2 (peptide)
peptide: Ac-PSRLEEELRKRLTE-NH2
modifications: lactam 6-10
SMILES: CC(=O)N1CCC[C@H]1C(=O)N[C@@H](CO)C(=O)N[C@@H](CCCNC(=N)N)C(=O)N[C@@H](CC(C)C)C(=O)N[C@@H](CCC(=O)O)C(=O)N[C@H]1CCC(=O)NCCCC[C@@H](C(=O)N[C@@H](CCCNC(=N)N)C(=O)N[C@@H](CC(C)C)C(=O)N[C@H](C(=O)N[C@@H](CCC(=O)O)C(N)=O)[C@@H](C)O)NC(=O)[C@H](CCCNC(=N)N)NC(=O)[C@H](CC(C)C)NC(=O)[C@H](CCC(=O)O)NC1=O
notes: Cyclic ALFA tag; also called SD15341

Columns and labels:
[1] = biological target: T1, biotinylated NbALFA (NanoTag) (biotinylated (site not stated)); assay: SPR, Biacore T200, biotinylated NbALFA captured on Biotin CAPture chip, peptide as analyte, multi-cycle kinetics, 1:1 model, 25 C
T1 construct: Bought from NanoTag and captured on the SPR chip through biotin; also called NbALFA-nanobody; Nanobody
Experimental: Affinity measurements were performed using a Biacore T200 (GE Healthcare, Biacore T200 control Software 3.2). For affinity measurement, the Biotin CAPture kit, series S (Cytiva Europe, Cat. no. 28920234) was utilized. A freshly docked Biotin CAPture chip was rehydrated overnight in the instrument (standby mode). The following day, the chip surface was conditioned three times with regeneration solution (6 M guanidine-HCl, 0.25 M NaOH) for 60 s at 10 μL/min on flow cell (FC) 1 and FC2. Subsequently, the Biotin CAPture reagent (Cytiva Europe, Cat. no. 29423383) was applied for 300 s at 2 μL/min on FC1 and FC2, followed by capturing of 25 nM biotinylated NbALFA (NanoTag). The immobilization of the Nanobody was done for 180 s at 10 μL/min on FC2 followed by quenching of unbound streptavidin by 0.1 mM biocytin for 60 s and 30 μL/min on both flow cells. […] injections of 10 nM, 5 nM, 2.5 nM, 1.25 nM, 0.625 nM and 0 nM (blank control) of cyclic ALFA variants were performed over both flow cells for 120 s with a flow rate of 40 μL/min, followed by dissociation for 1500 s. After each cycle, the surface was regenerated for 120 s with 10 μL/min using regeneration solution. All measurements were performed at 25° C. using HBS-EP+ buffer (Cytiva Europe, Cat. no BR100669). The control responses from FC1 were subtracted by the sample measurement in FC2 (FC2−FC1) followed by subtraction of the 0 nM blank injection. Resulting binding curves of this multi cycle kinetic experiment were fitted using the Biacore T200 Evaluation Software 3.2 and a 1:1 binding model.

anti-ALFA VHH [2] = assay: dose-response curve fit (log(agonist) vs. response, variable slope), FIG. 2; assay format not described; unit from paragraph 98
anti-ALFA VHH [3] = assay: dose-response curve fit (log(agonist) vs. response, variable slope), FIG. 2; assay format not described

T1 sequence (VHH, as listed by the source): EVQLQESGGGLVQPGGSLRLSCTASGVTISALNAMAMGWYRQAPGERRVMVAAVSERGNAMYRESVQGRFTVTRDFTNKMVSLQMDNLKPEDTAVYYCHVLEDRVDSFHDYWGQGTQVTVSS
anti-ALFA VHH, sequence (VHH, as listed by the source): as above

Binder | Kd [1] | koff [1] | kon [1] | EC50 (anti-ALFA VHH [2]) | Bottom (anti-ALFA VHH [3]) | LogEC50 (anti-ALFA VHH [3]) | Span (anti-ALFA VHH [3]) | Top (anti-ALFA VHH [3])
B1 | 55.6 pM | 0.00109 s⁻¹ | 1.95e+07 M⁻¹ s⁻¹ | 6050 pM | 0.145 | 0.782 | 1.29 | 1.44
B2 | 436 pM | 0.0079 s⁻¹ | 1.81e+07 M⁻¹ s⁻¹ | 377000 pM | 0.0167 | 2.58 | 1.41 | 1.43
B3 | 11.7 pM | 0.000593 s⁻¹ | 5.05e+07 M⁻¹ s⁻¹ | 2600 pM | 0.097 | 0.414 | 1.29 | 1.39
B4 | 55.1 pM | 0.000577 s⁻¹ | 1.05e+07 M⁻¹ s⁻¹ | 5980 pM | 0.152 | 0.776 | 1.2 | 1.35
B5 | 38 pM | 0.000513 s⁻¹ | 1.35e+07 M⁻¹ s⁻¹ |  |  |  |  | 
B6 | 103 pM | 0.000964 s⁻¹ | 9.33e+06 M⁻¹ s⁻¹ |  |  |  |  | 
B7 | 37.6 pM | 0.00067 s⁻¹ | 1.78e+07 M⁻¹ s⁻¹ | 5980 pM | 0.159 | 0.776 | 1.27 | 1.43
B8 | 1430 pM | 4.94 s⁻¹ | 3.44e+09 M⁻¹ s⁻¹ |  |  |  |  | 
B9 | 19.4 pM | 0.000361 s⁻¹ | 1.86e+07 M⁻¹ s⁻¹ |  |  |  |  | 

Source: patent US20250154202A1 (published 2025)
